Source: patent publication US20070123452A1, “Method of selecting novel immunosuppressant” (Astellas Pharma Inc., priority 2002, published 2007)

How the values were obtained:
[1] = molecular target: HDAC4-VP16 fusion protein (pACT-HDAC4) (human, UniProt P56524 1-1084); assay: mammalian two-hybrid (CheckMate), pG5-Luc luciferase in Jurkat cells
[2] = molecular target: T1, HDAC4 (H863L)-VP16 fusion protein (pACT-HDAC4 (H863L)) (human, UniProt P56524 1-1084); assay: as above
T1 construct: also called HDAC4 dominant negative variant (H863L)

B1: GAL4-N-CoR (RD3) fusion protein (pBIND-N-CoR(RD3)) (other, not shown: large carriers)
chain: EVLQPAPHQVITNLPEGVRLPTTRPTRPPPPLIPSSKTTVASEKPSFIMGGSISQGTPGTYLTSHNQASYTQETPKPSVGSISLGLPRQQESAKSATLPYIKQEEFSPRSQNSQPEGLLVRAQHEGVVRGTAGAIQEGSITRGTPTSKISVESIPSLRGSITQGTPALPQTGIPTEALVKGSISRMPIEDSSPEKGREEAASKGHVIYEGKSGHILSYDNIKNAREGTRSPRTAHEISLKRSYESVEGNIKQGMSMRESPVSAPLEGLICRALPRGSPHSDLKERTVLSGSIMQGTPRATTESFEDGLKYPKQIKRESPPIRAFEGAITKGKPYDGITTIKEMGRSIHEIPRQDILTQESRKTPEVVQSTRPIIEGSISQGTPIKFDNNSGQSAIKHNVKSLITGPSKLSRGMPPLEIVPENIKVVERGKYEDVKAGETVRSRHTSVVSSGPSVLRSTLHEAPKAQLSPGIYDDTSARRTPVSYQN
notes: The cloned fragment carried the variation L1014V (numbered on full-length N-CoR); also called pBND-N-CoR (RD3)
Question: Does B1 bind [1]?
Answer: Result: binds

Question: Does B1 bind [2]?
Answer: Result: no binding
